For the test, the target named is Yeast Hsp90 wild-type FRET hetero-dimer (donor 61C + biotinylated acceptor 385C) (yeast | D. melanogaster).

B1: cochaperone Aha1 (natural protein)
chain: MVVNNPNNWHWVDKNCIGWAKEYFKQKLVGVEAGSVKDKKYAKIKSVSSIEGDCEVNQRKGKVISLFDLKITVLIEGHVDSKDGSALPFEGSINVPEVAFDSEASSYQFDISIFKETSELSEAKPLIRSELLPKLRQIFQQFGKDLLATHGNDIQVPESQVKSNYTRGNQKSSFTEIKDSASKPKKNALPSSTSTSAPVSSTNKVPQNGSGNSTSIYLEPTFNVPSSELYETFLDKQRILAWTRSAQFFNSGPKLETKEKFELFGGNVISELVSCEKDKKLVFHWKLKDWSAPFNSTIEMTFHESQEFHETKLQVKWTGIPVGEEDRVRANFEEYYVRSIKLTFGFGAVL
Turning to B1, the increase in ATPase activity of Hsp90 in the presence of 3 µM Aha1, normalised to the activity without Aha1 was 17 fold.

The values are drawn from article PMC7375816.
